Sequences and labels used below:
B1: TPR 5TU (parent)
chain: GGAUCUUCUCGAUCUAACAAAAAAGACAAAUCUGCCACAAAGCUUGAGAGCAUCUUCGGAUGCAGAGGCGGCAGCCUUCGGUGGCGCGAUAGCGCCAACGUUCUCAACUAUGACACGCAAAACGCGUGCUCCGUUGAAUGGAGUUUAUCAUG

This sample holds only a part of the variants without activity.

In the data set the parent is B1. The data set is described as follows: polymerase ribozyme fitness, log enrichment relative to wild type (log ratio); higher = more active; in vitro selection for triplet polymerase activity. Put shortly: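 A single round of triplicate in vitro selection, including frozen incubation at −7 °C, was applied to PCR-built, transcribed mutant libraries of each subunit of a heterodimeric triplet polymerase ribozyme. Illumina sequencing of input and output libraries retained genotypes with ≥10 input reads and ≥1 read per output. Fitness is the base-2 logarithm of genotype enrichment divided by wild-type enrichment, from inverse-variance-weighted replicate averages.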
Take GGAUCUUCUCGAUCUAACAAGAAAGACAAAUCUGCCACAAAGCUUGAGAGCAUCUUCGGAUGCAGAGGGGGCAGCCUUCGGAGGCGUGAUAGCGCCAACGUUCUCAACUAUGACACGCAAAACGCGUGCUCCGUUGAAUGGAGUUUAUCAUG [A21G C69G U82A C87U]: the “polymerase ribozyme fitness (log ratio)” value was -1.28.
Regarding GGAUCUUCUCGAUCUAACAAAAAAGACAAAUCUGCCACAAAGCUUGAGAGCAUCUUCGCAUGCAGAGGCGGCAGCCUUCGGUGGCGCGAUAGCGCCAUCGUUCUCAACUAUGACACGCAAAACGCGUGCUCCGUUGAAUGGAGUUUAUCAUG [G59C A98U], the “polymerase ribozyme fitness (log ratio)” value turned out to be 0.166.
In the case of GGAUCUUCUCGAUCUAACAAAAAAGACAAAUCUGCCACAAUGCUUGAGAGCAUCUUCGGAUGCAGAGGCGGCAGCCUUCGGUGGCGCGAUAGCGCCAACGUUCUCAACUAUGACACGCAAAACGCGUGCUGCGUUGAAUGGAGUUUAUCAUG [A41U C131G], the “polymerase ribozyme fitness (log ratio)” value was ≤ -4.2.
With GGAUCUUCUCGAUCUAACAAAAAAGACAAAUCUGCUACAAAGCUUGAGAGCAUCUUCGGAUGCAGAGGCGGCAGCCUUCGGUGGCGUGAUAGAGGCAACGUUCUCAACUAUGACACGCAAAACGCGUGCUCCGUUGAAUGGAGUUUAUCAUG [C36U C87U C93A C95G], the “polymerase ribozyme fitness (log ratio)” value is ≤ -4.2.
For GGAUCUUCUCGAUCUAACAAAAAAGACAAAUCUGCCACAAAGCUUGAGAGCAUCUUCGGAUGCAGAGGCGGCAGCCUUCGGUGGCGUGAUAGAGCCAACGUUCUCAACUAUGACACGCAAAACGCGUGCUCCGUUGAAUGGAGUUUAUCAUG [C87U C93A], the “polymerase ribozyme fitness (log ratio)” value was -3.93.
On to GGAUCUUCUCGAUCUAACAAAAAAGACAAAUCUGCCACAAAGCUUGAGAGCAUCUUCGGAUGCAGAGGCGGCAGCCUUCGGUGGCCCGAUAGCGCCAACGUUCUCAACUAUGACACGCAAAACGCGUGCUCCGUAGAAUGGAGUUUAUCAUG [G86C U135A], for which the “polymerase ribozyme fitness (log ratio)” value was -3.03.
As for GGAUCUUCUCGAUCUAACAAAAAAGACAAAUCUGCCACAAAGCUUGAGAGCAUCGUCGGAUGCAGAGGCGGCAGCCUUCGGUGGCGAGAUAGCGCCAACGUUCUCAACUAUGACACGCAAAACGCGUGCUCCGUUGAAUGGAGUUUAUCAUG [U55G C87A], the “polymerase ribozyme fitness (log ratio)” value was -4.1.
Regarding GGAUCUUCUCGAUCUAACAAAAAAGACAAAUCUGCCACAAAGCUUGAGAUCAUCUUCGGAUGCAGAGGCGGCAGCCUUCAGUGGCGCGAUGGCGCCAAGGUUCUCAACUAUGACACGCAAAACGCGUGCUCCGUUGAAUGGAGUUUAUCAUG [G50U G80A A91G C99G], the “polymerase ribozyme fitness (log ratio)” value was ≤ -4.2.
Turning to GGAUCUUCUCGGUCUAACAAAAAAGACAAAUCUGCAACAAAGCUUGAGAGCAUCGUCGGAUGCAGAGGCGACAGCCUUCGGUGGCGCGAUAGCGCGAACGUUCUCAACUAUGACAAGCAAAACGCGUGCUCCGGUGAAUGGAGUUUAUCAUG [A12G C36A U55G G71A C96G C116A U134G], the “polymerase ribozyme fitness (log ratio)” value was ≤ -4.2.
Regarding GGAUCUUCUCGAUCUAACAAAAAAGACAAAUCUGCCACAAAGCUUGAGAGCUUCUUCUGAUGCAGAGGCGGCAGCCUUCGGUGGCGCGAUAGCGUCAACGUUCUCAACUAUGACACGCAAAACGCGUGCUCCGUUGAAUGGAGUUUAUCAUG [A52U G58U C95U], the “polymerase ribozyme fitness (log ratio)” value was -1.52.
In the case of GGAUCUUCUCGAUCUAACAAAAAAGACAAAGCUGCCACAAAGCUUGAGAGCAUCUUCGGAUGCAGAGGCGGCAGCCUUCGGUGGCGCGAUAGCGCUAAUGUUCUCAACUAUGACACGCAAAACGCGGGCUCCGUUGAAUGGAGUUUAUCAUG [U31G C96U C99U U127G], the “polymerase ribozyme fitness (log ratio)” value is ≤ -4.2.
In the case of GGAUCUUCUCGAUCUAACAAAAAAGACAAAUCUGCCACAAAGCUUGAGGGCAUCUUCGGAUGCAGAGGCGGCAGCCUUCGGUCGCGCGAUAGCGCCAACGUUCUCAACUAUGACACGCAAAACGCGUGCUCCGUUGAAUGGAGUUUAUCAUG [A49G G83C], the “polymerase ribozyme fitness (log ratio)” value is -1.21.
In the case of GGAUCUUCUCGAUCUAACAAAAAAGACAAAUCUGCUACAAAGCUUGAGAGCAUCUUCGGGUGCAGAGGCGGCAGGCUUCGGUGGCGCGAUACCGCCAACGUUCUCAACUAUGACACGCAAAACGCGUGCUCCGUUGAAUGGAGUUUAUCAUG [C36U A60G C75G G92C], the “polymerase ribozyme fitness (log ratio)” value is ≤ -4.2.
Consider GGAUCUUCUCGAUCUAACAAGAAAGACAAAUCUGCCACAAAGCUUGAGAGCAUCUUCGGAUGCAGAGGCGGCAGCCUUCGGUGGCGCGAUAGCACCGACGUUCUCAACUAUGACACGCAAAACGCGUGCUCCGUUGGAUGGAGUUUAUCAUG [A21G G94A A97G A137G], for which the “polymerase ribozyme fitness (log ratio)” value was -2.22.
Consider GGAUCUUCUCGAUCUAACAAAAAAGACAAAUCUGCCACAAAGCUUGAGAGCAUCUGCGGAUGCCGAGGCGGCAGCCUUCGGUGGCGCGAUAGCGCCAACGUUCUCAACUAUGACACGCAAAACGCGUGCUCCGUUGAAUGGAGUUUAUCAUG [U56G A64C], for which the “polymerase ribozyme fitness (log ratio)” value was ≤ -4.2.
GGAUCUUCUCGAUCUAACAAAAAAGACAAAUCUGCCGCAAAGCUUGAGAGCAUUUUCGGAUGCAGAGGCGGCAGCCUUCGGUGGCGCGAUAGCGCCAACGUUCUCAACUAUGACACGCAAAACGCGUGCUUCGUUGAAUGGAGUUUAUCAUG [A37G C54U C131U]: the “polymerase ribozyme fitness (log ratio)” value was -1.58.
For GGAUCUUCUCGAUCUAACAAAUAAGGCAAAUCUGCAACAAAUCUUGAGAGCAUCUUCGGAUGCAGAGGCGGCAGCCUUCGGUGGCGCGAUAGCGCGAACGUUCUCAACUAUGACACGCAAAACGCGUUCUCGGUUGAAUGGAGGUUAUCAUG [A22U A26G C36A G42U C96G G128U C132G U144G], the “polymerase ribozyme fitness (log ratio)” value was ≤ -4.2.
The figure for GGAACUUCUCGAUCUAACAAGAAAGACAAAUCUGCCACAAAGCUUGAGAGCAUCUUCGGAUGCAGAGACGGCGGCCUUCGGUGGCUCGAUAGCGCCAACGUUCUCAACUAUGACACGCAAAACGCGUGCUCCGUUGAAUGGGGUUUAUCAUG [U4A A21G G68A A73G G86U A142G] is ≤ -4.2; for GGAUCUUCUCGAUCUAACAAAAAAGACAAAUCUGCCACAAAGCUUGAGAGCUUCUUCGGAUGCAGAGGCGCCAGCCUUCGGUGGCGCGAUAACGCGAACGUUCUCAACUAUGACACGCAAAACGCGUGCUCCGUUGAAUGGAGUUUAUCAUG [A52U G71C G92A C96G] it is ≤ -4.2.

The values above are taken from the RNAGym collection of RNA variant scans (doi:10.1073/pnas.2313332121).
